Kd data for 21 molecules are collected here from patent US20230104769A1 (MABWELL SHANGHAI BIOSCIENCE, published 2023).

Sequences and labels used below:
B1: h317 variant antibody, heavy chain Y59T (antibody, V domains shown)
VH: EVQLVESGGGLVKPGGSLRLSCAASGFTFSSYDMSWVRQAPGKGLEWVATISGGGSYTTYPDSVKGRFTISRDNAKNSLYLQMNSLRAEDTAVYYCASPDSSGVAYWGQGTLVTVSS
VL: DIVMTQSPLSLPVTPGEPASITCKASQDVETVVAWYLQKPGQSPRLLIYWASTRHTGVPDRFSGSGSGTDFTLKISRVEAEDVGVYYCQQYSRYPWTFGQGTKL
notes: Variant of h317
B2: h317 variant antibody, light chain K24R, T56S and S92N (antibody, V domains shown)
VH: EVQLVESGGGLVKPGGSLRLSCAASGFTFSSYDMSWVRQAPGKGLEWVATISGGGSYTYYPDSVKGRFTISRDNAKNSLYLQMNSLRAEDTAVYYCASPDSSGVAYWGQGTLVTVSS
VL: DIVMTQSPLSLPVTPGEPASITCRASQDVETVVAWYLQKPGQSPRLLIYWASTRHSGVPDRFSGSGSGTDFTLKISRVEAEDVGVYYCQQYNRYPWTFGQGTKL
notes: Variant of h317; also called 24R(CDR1) 56S(CDR2) 92N(CDR3)
B3: h317 variant antibody, light chain K24R (antibody, V domains shown)
VH: EVQLVESGGGLVKPGGSLRLSCAASGFTFSSYDMSWVRQAPGKGLEWVATISGGGSYTYYPDSVKGRFTISRDNAKNSLYLQMNSLRAEDTAVYYCASPDSSGVAYWGQGTLVTVSS
VL: DIVMTQSPLSLPVTPGEPASITCRASQDVETVVAWYLQKPGQSPRLLIYWASTRHTGVPDRFSGSGSGTDFTLKISRVEAEDVGVYYCQQYSRYPWTFGQGTKL
notes: Variant of h317
B4: h317 variant antibody, light chain S92N (antibody, V domains shown)
VH: EVQLVESGGGLVKPGGSLRLSCAASGFTFSSYDMSWVRQAPGKGLEWVATISGGGSYTYYPDSVKGRFTISRDNAKNSLYLQMNSLRAEDTAVYYCASPDSSGVAYWGQGTLVTVSS
VL: DIVMTQSPLSLPVTPGEPASITCKASQDVETVVAWYLQKPGQSPRLLIYWASTRHTGVPDRFSGSGSGTDFTLKISRVEAEDVGVYYCQQYNRYPWTFGQGTKL
notes: Variant of h317
B5: h317 variant antibody, light chain V32Y (antibody, V domains shown)
VH: EVQLVESGGGLVKPGGSLRLSCAASGFTFSSYDMSWVRQAPGKGLEWVATISGGGSYTYYPDSVKGRFTISRDNAKNSLYLQMNSLRAEDTAVYYCASPDSSGVAYWGQGTLVTVSS
VL: DIVMTQSPLSLPVTPGEPASITCKASQDVETYVAWYLQKPGQSPRLLIYWASTRHTGVPDRFSGSGSGTDFTLKISRVEAEDVGVYYCQQYSRYPWTFGQGTKL
notes: Variant of h317
B6: h317 variant antibody, light chain H55A (antibody, V domains shown)
VH: EVQLVESGGGLVKPGGSLRLSCAASGFTFSSYDMSWVRQAPGKGLEWVATISGGGSYTYYPDSVKGRFTISRDNAKNSLYLQMNSLRAEDTAVYYCASPDSSGVAYWGQGTLVTVSS
VL: DIVMTQSPLSLPVTPGEPASITCKASQDVETVVAWYLQKPGQSPRLLIYWASTRATGVPDRFSGSGSGTDFTLKISRVEAEDVGVYYCQQYSRYPWTFGQGTKL
notes: Variant of h317
B7: h317 variant antibody, light chain W50A (antibody, V domains shown)
VH: EVQLVESGGGLVKPGGSLRLSCAASGFTFSSYDMSWVRQAPGKGLEWVATISGGGSYTYYPDSVKGRFTISRDNAKNSLYLQMNSLRAEDTAVYYCASPDSSGVAYWGQGTLVTVSS
VL: DIVMTQSPLSLPVTPGEPASITCKASQDVETVVAWYLQKPGQSPRLLIYAASTRHTGVPDRFSGSGSGTDFTLKISRVEAEDVGVYYCQQYSRYPWTFGQGTKL
notes: Variant of h317
B8: h317 variant antibody, light chain T56S and S92N (antibody, V domains shown)
VH: EVQLVESGGGLVKPGGSLRLSCAASGFTFSSYDMSWVRQAPGKGLEWVATISGGGSYTYYPDSVKGRFTISRDNAKNSLYLQMNSLRAEDTAVYYCASPDSSGVAYWGQGTLVTVSS
VL: DIVMTQSPLSLPVTPGEPASITCKASQDVETVVAWYLQKPGQSPRLLIYWASTRHSGVPDRFSGSGSGTDFTLKISRVEAEDVGVYYCQQYNRYPWTFGQGTKL
notes: Variant of h317; also called 56S(CDR2) 92N(CDR3)
B9: h317 variant antibody, heavy chain Y106T (antibody, V domains shown)
VH: EVQLVESGGGLVKPGGSLRLSCAASGFTFSSYDMSWVRQAPGKGLEWVATISGGGSYTYYPDSVKGRFTISRDNAKNSLYLQMNSLRAEDTAVYYCASPDSSGVATWGQGTLVTVSS
VL: DIVMTQSPLSLPVTPGEPASITCKASQDVETVVAWYLQKPGQSPRLLIYWASTRHTGVPDRFSGSGSGTDFTLKISRVEAEDVGVYYCQQYSRYPWTFGQGTKL
notes: Variant of h317; also called YI06T
B10: h317 variant antibody, light chain S92D (antibody, V domains shown)
VH: EVQLVESGGGLVKPGGSLRLSCAASGFTFSSYDMSWVRQAPGKGLEWVATISGGGSYTYYPDSVKGRFTISRDNAKNSLYLQMNSLRAEDTAVYYCASPDSSGVAYWGQGTLVTVSS
VL: DIVMTQSPLSLPVTPGEPASITCKASQDVETVVAWYLQKPGQSPRLLIYWASTRHTGVPDRFSGSGSGTDFTLKISRVEAEDVGVYYCQQYDRYPWTFGQGTKL
notes: Variant of h317
B11: h317 variant antibody, light chain K24R and T56S (antibody, V domains shown)
VH: EVQLVESGGGLVKPGGSLRLSCAASGFTFSSYDMSWVRQAPGKGLEWVATISGGGSYTYYPDSVKGRFTISRDNAKNSLYLQMNSLRAEDTAVYYCASPDSSGVAYWGQGTLVTVSS
VL: DIVMTQSPLSLPVTPGEPASITCRASQDVETVVAWYLQKPGQSPRLLIYWASTRHSGVPDRFSGSGSGTDFTLKISRVEAEDVGVYYCQQYSRYPWTFGQGTKL
notes: Variant of h317; also called 24R(CDR1) 56(2)
B12: h317 variant antibody, light chain K24R and Y94F (antibody, V domains shown)
VH: EVQLVESGGGLVKPGGSLRLSCAASGFTFSSYDMSWVRQAPGKGLEWVATISGGGSYTYYPDSVKGRFTISRDNAKNSLYLQMNSLRAEDTAVYYCASPDSSGVAYWGQGTLVTVSS
VL: DIVMTQSPLSLPVTPGEPASITCRASQDVETVVAWYLQKPGQSPRLLIYWASTRHTGVPDRFSGSGSGTDFTLKISRVEAEDVGVYYCQQYSRFPWTFGQGTKL
notes: Variant of h317; also called 24R(CDR1) 94F(CDR3)
B13: h317 variant antibody, light chain R93N (antibody, V domains shown)
VH: EVQLVESGGGLVKPGGSLRLSCAASGFTFSSYDMSWVRQAPGKGLEWVATISGGGSYTYYPDSVKGRFTISRDNAKNSLYLQMNSLRAEDTAVYYCASPDSSGVAYWGQGTLVTVSS
VL: DIVMTQSPLSLPVTPGEPASITCKASQDVETVVAWYLQKPGQSPRLLIYWASTRHTGVPDRFSGSGSGTDFTLKISRVEAEDVGVYYCQQYSNYPWTFGQGTKL
notes: Variant of h317
B14: h317 variant antibody, light chain H55Q (antibody, V domains shown)
VH: EVQLVESGGGLVKPGGSLRLSCAASGFTFSSYDMSWVRQAPGKGLEWVATISGGGSYTYYPDSVKGRFTISRDNAKNSLYLQMNSLRAEDTAVYYCASPDSSGVAYWGQGTLVTVSS
VL: DIVMTQSPLSLPVTPGEPASITCKASQDVETVVAWYLQKPGQSPRLLIYWASTRQTGVPDRFSGSGSGTDFTLKISRVEAEDVGVYYCQQYSRYPWTFGQGTKL
notes: Variant of h317
B15: h317 variant antibody, light chain R93S (antibody, V domains shown)
VH: EVQLVESGGGLVKPGGSLRLSCAASGFTFSSYDMSWVRQAPGKGLEWVATISGGGSYTYYPDSVKGRFTISRDNAKNSLYLQMNSLRAEDTAVYYCASPDSSGVAYWGQGTLVTVSS
VL: DIVMTQSPLSLPVTPGEPASITCKASQDVETVVAWYLQKPGQSPRLLIYWASTRHTGVPDRFSGSGSGTDFTLKISRVEAEDVGVYYCQQYSSYPWTFGQGTKL
notes: Variant of h317
B16: h317 variant antibody, light chain E30S (antibody, V domains shown)
VH: EVQLVESGGGLVKPGGSLRLSCAASGFTFSSYDMSWVRQAPGKGLEWVATISGGGSYTYYPDSVKGRFTISRDNAKNSLYLQMNSLRAEDTAVYYCASPDSSGVAYWGQGTLVTVSS
VL: DIVMTQSPLSLPVTPGEPASITCKASQDVSTVVAWYLQKPGQSPRLLIYWASTRHTGVPDRFSGSGSGTDFTLKISRVEAEDVGVYYCQQYSRYPWTFGQGTKL
notes: Variant of h317
B17: h317 variant antibody, light chain V32A (antibody, V domains shown)
VH: EVQLVESGGGLVKPGGSLRLSCAASGFTFSSYDMSWVRQAPGKGLEWVATISGGGSYTYYPDSVKGRFTISRDNAKNSLYLQMNSLRAEDTAVYYCASPDSSGVAYWGQGTLVTVSS
VL: DIVMTQSPLSLPVTPGEPASITCKASQDVETAVAWYLQKPGQSPRLLIYWASTRHTGVPDRFSGSGSGTDFTLKISRVEAEDVGVYYCQQYSRYPWTFGQGTKL
notes: Variant of h317
B18: h317 variant antibody, light chain K24R and S92N (antibody, V domains shown)
VH: EVQLVESGGGLVKPGGSLRLSCAASGFTFSSYDMSWVRQAPGKGLEWVATISGGGSYTYYPDSVKGRFTISRDNAKNSLYLQMNSLRAEDTAVYYCASPDSSGVAYWGQGTLVTVSS
VL: DIVMTQSPLSLPVTPGEPASITCRASQDVETVVAWYLQKPGQSPRLLIYWASTRHTGVPDRFSGSGSGTDFTLKISRVEAEDVGVYYCQQYNRYPWTFGQGTKL
notes: Variant of h317; also called 24R(CDR1) 92N(CDR3)
B19: h317 variant antibody, light chain K24R, T56S and S92N with heavy chain G54S and Y59A (antibody, V domains shown)
VH: EVQLVESGGGLVKPGGSLRLSCAASGFTFSSYDMSWVRQAPGKGLEWVATISGSGSYTAYPDSVKGRFTISRDNAKNSLYLQMNSLRAEDTAVYYCASPDSSGVAYWGQGTLVTVSS
VL: DIVMTQSPLSLPVTPGEPASITCRASQDVETVVAWYLQKPGQSPRLLIYWASTRHSGVPDRFSGSGSGTDFTLKISRVEAEDVGVYYCQQYNRYPWTFGQGTKL
notes: Variant of h317; also called L- 24R(CDR1) 56S(CDR2) 92N(CDR3); H- 54S(CDR2) 59A(CDR2)
B20: h317 variant antibody, light chain T56S (antibody, V domains shown)
VH: EVQLVESGGGLVKPGGSLRLSCAASGFTFSSYDMSWVRQAPGKGLEWVATISGGGSYTYYPDSVKGRFTISRDNAKNSLYLQMNSLRAEDTAVYYCASPDSSGVAYWGQGTLVTVSS
VL: DIVMTQSPLSLPVTPGEPASITCKASQDVETVVAWYLQKPGQSPRLLIYWASTRHSGVPDRFSGSGSGTDFTLKISRVEAEDVGVYYCQQYSRYPWTFGQGTKL
notes: Variant of h317
B21: h317 variant antibody, light chain K24R, T56S and S92N with heavy chain D33S and G54S (antibody, V domains shown)
VH: EVQLVESGGGLVKPGGSLRLSCAASGFTFSSYSMSWVRQAPGKGLEWVATISGSGSYTYYPDSVKGRFTISRDNAKNSLYLQMNSLRAEDTAVYYCASPDSSGVAYWGQGTLVTVSS
VL: DIVMTQSPLSLPVTPGEPASITCRASQDVETVVAWYLQKPGQSPRLLIYWASTRHSGVPDRFSGSGSGTDFTLKISRVEAEDVGVYYCQQYNRYPWTFGQGTKL
notes: Variant of h317; also called L- 24R(CDR1) 56S(CDR2) 92N(CDR3); H- 33S(CDR1) 54S(CDR2)

This experiment deals with T1, recombinant human PD-1 protein (NCBI accession No.: NP_005009.2, 21aa-167aa) (human, UniProt Q15116 21-167).
T1 construct: range 21-167; also called recombinant human PD-1 extracellular domain protein; PD-1-ECD
T1 sequence (Q15116 21-167 limits assumed, form in doubt): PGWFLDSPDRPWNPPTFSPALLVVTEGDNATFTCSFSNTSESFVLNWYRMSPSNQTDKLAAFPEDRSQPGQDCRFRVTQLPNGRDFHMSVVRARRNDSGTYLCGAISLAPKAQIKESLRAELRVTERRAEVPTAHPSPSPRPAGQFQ
Nature of the experiment: BLI Octet QKe, antibody on the sensor, single 100 nM PD-1. The procedure:
Determination of the binding kinetics: the affinity of the antibody was determined with Octet QKe system from Fortebio using an assay of capturing biotin-labeled antibody with streptavidin. […] Both the binding and dissociating were conducted for 300 s.
The comparison of affinity between the variant antibodies and the parent antibody was performed using Octet QKe system supplied by Fortebio.
On the technique in general: BLI is a label-free optical method that tracks binding on a fibre tip over time.
As to B1, the Kd stood at 18.9 nM. As for B2, the Kd amounted to 2.91 nM.

On to B3, for which the Kd amounted to 1.02 nM. With B4 the figure was 3.49 nM. With B5 the figure was 9.81 nM; with B6, 172 nM.

Take B7: the Kd is 12.3 nM. For B8 the value was 3.98 nM; for B9, 294 nM; for B10, 7.52 nM. For B11 the value was 3.23 nM; for B12, 5.32 nM; for B13, 36.4 nM. For B14 the value was 14.2 nM; for B15, 7.94 nM; for B16, 14.2 nM.

Take B17: the Kd worked out at 6.21 nM. With B18 the figure was 4.17 nM. With B19 the figure was 2.88 nM.

With B20, the Kd came out at 3.02 nM. B21: the dissociation constant (Kd) amounted to 3.38 nM.

As usually defined, the Kd is the free concentration of one partner at which half of the binding sites on the other are occupied at equilibrium, for simple one-to-one binding.
